Data on one molecule can be found in publication PMC1666580 (The Journal of Cell Biology, 2006).

In this test the target is T1, bacterially expressed human SDC1 ectodomain (hS1ED) (human, UniProt P18827 23-254).
T1 sequence (looked up): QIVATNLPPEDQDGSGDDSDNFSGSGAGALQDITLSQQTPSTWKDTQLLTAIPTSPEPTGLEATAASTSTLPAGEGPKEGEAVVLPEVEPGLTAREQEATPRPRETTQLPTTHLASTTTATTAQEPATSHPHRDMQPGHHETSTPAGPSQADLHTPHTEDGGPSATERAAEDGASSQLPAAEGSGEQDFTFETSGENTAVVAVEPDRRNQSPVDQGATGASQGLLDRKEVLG
Description: pull-down.

B1: lacritin-intein fusion protein (lacritin coupled to chitin beads via chitin-binding intein) (ligand, human, UniProt Q9GZZ8 20-138, looked up)
chain: EDASSDSTGADPAQEAGTSKPNEEISGPAEPASPPETTTTAQETSAAAVQGTAKVTSSRQELNPLKSIVEKSILLTEQALAKAGKGMHGGVPGGKQFIENGSEFAQKLLKKFSLLKPWA
As for B1, the binding result is reported as “binds”.
